Test [1] has as its target Monkey, bovine, and porcine GPCR142. In words: cell-based or functional assay.
In test [2] the target is T1, human GPCR142 (human, UniProt Q8TDU9 1-374).
T1 construct: Expressed in COS-7, CHO, SK-N-MC or HEK293 cells
In words: competition binding with ^125I-relaxin3, membranes of COS-7 cells transiently expressing GPCR142. As for the experimental part:
(§1) The binding mixtures were incubated at room temperature for 1 h and then were filtered through 96-well GFC plates (Packard) and washed with ice-cold washing buffer: 50 mM Tris-HCl, pH 7.4. Fifty microliters of Microscint-40 were added to each well and the plates were counted in a Topcounter NTX (Packard).

Test [3] deals with T2, monkey GPCR142 (monkey (Macaca Nemestrina), UniProt Q8TDU9 1-374 (human entry)).
T2 chain: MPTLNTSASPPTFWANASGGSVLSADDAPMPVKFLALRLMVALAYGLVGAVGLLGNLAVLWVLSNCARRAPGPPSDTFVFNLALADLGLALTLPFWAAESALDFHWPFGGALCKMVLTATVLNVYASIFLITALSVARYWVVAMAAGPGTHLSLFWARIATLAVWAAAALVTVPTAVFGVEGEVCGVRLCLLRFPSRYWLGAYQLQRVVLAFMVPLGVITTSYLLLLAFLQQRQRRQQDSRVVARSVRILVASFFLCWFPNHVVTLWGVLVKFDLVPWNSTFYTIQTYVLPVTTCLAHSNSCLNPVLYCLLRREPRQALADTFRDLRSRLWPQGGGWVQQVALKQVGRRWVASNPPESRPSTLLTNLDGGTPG
In words: cell-based or functional assay.

Test [4] concerns the target T3, bovine GPCR142 (bovine).
T3 chain: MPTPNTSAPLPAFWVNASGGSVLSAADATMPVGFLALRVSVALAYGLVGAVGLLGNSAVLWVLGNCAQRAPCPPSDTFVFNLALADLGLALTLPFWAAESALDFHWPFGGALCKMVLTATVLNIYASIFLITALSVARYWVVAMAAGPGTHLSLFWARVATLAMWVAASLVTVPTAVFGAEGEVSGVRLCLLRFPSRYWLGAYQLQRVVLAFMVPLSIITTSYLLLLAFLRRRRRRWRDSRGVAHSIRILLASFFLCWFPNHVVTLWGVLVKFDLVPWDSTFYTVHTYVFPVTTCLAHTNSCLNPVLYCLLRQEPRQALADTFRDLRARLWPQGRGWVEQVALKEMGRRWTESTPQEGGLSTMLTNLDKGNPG
Description: cell-based or functional assay.

In test [5] the target is T4, mouse GPCR142 (mouse, UniProt Q7TQP4 1-414).
T4 sequence: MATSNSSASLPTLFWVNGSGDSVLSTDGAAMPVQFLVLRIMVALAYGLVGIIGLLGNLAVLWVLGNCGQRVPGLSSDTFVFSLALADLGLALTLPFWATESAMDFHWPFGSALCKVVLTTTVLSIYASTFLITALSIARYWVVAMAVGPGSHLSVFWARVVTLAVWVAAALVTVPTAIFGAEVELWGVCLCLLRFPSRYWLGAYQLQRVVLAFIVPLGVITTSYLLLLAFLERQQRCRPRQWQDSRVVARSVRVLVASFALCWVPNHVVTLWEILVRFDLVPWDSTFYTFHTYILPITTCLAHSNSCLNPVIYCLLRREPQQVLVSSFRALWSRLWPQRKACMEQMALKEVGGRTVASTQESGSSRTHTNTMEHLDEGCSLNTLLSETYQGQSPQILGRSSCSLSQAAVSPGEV
Description: cell-based or functional assay.

For test [6], the target named is T1, human GPCR142. In words: cell-based or functional assay.
In test [7] the target is T5, porcine GPCR142 (porcine).
T5 chain: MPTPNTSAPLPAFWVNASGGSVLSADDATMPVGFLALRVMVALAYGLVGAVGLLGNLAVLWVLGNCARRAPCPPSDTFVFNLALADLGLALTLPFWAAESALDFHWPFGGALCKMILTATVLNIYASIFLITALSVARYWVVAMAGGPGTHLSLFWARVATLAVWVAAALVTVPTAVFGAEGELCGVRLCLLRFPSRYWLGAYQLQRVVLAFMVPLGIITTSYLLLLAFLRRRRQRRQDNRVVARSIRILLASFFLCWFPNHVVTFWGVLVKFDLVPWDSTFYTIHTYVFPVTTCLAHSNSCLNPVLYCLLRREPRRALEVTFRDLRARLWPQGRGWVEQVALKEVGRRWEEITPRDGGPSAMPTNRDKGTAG
Description: cell-based or functional assay.

Test [8] concerns the target T1, human GPCR142. Description: radioligand binding assays.
Test [9] deals with T2, monkey GPCR142. In words: radioligand competition binding, recombinant receptor in transfected COS-7 cells. As to the method:
(§2) Competition binding experiments were performed to compare the ligand binding properties for recombinant monkey, mouse, bovine, and porcine GPCR142 versus that of the human GPCR142. […] The GPCR142 receptors from different species were also compared in GTPγS binding and Ca²⁺ mobilization assays.
as §1
A general note: Loss of bound radioactivity is the signal in a displacement assay; it reports binding, not function.

Test [10] addresses T3, bovine GPCR142. Described as above. As to the method: as §2, §1
In test [11] the target is T4, mouse GPCR142. Described as above. As to the method: as §2, §1
Test [12] addresses T1, human GPCR142. The description is as above. As to the method:
as §2, §1

The target in test [13] is T5, porcine GPCR142. Described as above. As to the method:
as §2, §1

The target of another test is T6, human GPCR135 (human, UniProt Q9NSD7 1-469).
T6 construct: Expressed in COS-7, CHO, SK-N-MC or HEK293 cells
T6 sequence: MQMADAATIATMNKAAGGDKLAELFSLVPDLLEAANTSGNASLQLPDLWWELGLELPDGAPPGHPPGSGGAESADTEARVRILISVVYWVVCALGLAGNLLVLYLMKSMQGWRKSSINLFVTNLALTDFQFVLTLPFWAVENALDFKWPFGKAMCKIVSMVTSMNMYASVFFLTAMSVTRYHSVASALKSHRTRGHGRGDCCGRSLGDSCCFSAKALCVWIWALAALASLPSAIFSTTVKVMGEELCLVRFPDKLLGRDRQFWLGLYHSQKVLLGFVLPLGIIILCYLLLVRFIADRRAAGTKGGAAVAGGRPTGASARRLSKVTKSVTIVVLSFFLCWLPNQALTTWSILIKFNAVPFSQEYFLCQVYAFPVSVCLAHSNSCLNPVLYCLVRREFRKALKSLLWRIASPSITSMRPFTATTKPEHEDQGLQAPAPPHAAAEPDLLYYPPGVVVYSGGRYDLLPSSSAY
In words: competition binding with 100 pM ^125I-relaxin3, membranes of COS-7 cells expressing human GPCR135. As for the experimental part: The binding assays were performed at room temperature for an incubation time of one hour. The binding mixtures were then filtered through GFC filters pre-saturated with 0.3 polyethylenimine (Sigma) and washed with cold binding buffer. […] The results were analyzed by Prism 3.0 software.

Where “and” joins values, the source holds several entries; their conditions need not be identical. Equal entries are not always repeated. No end group written: not given here.

The Ki is a dissociation constant, usually derived from enzyme kinetics or from competition with a known ligand. In general, IC50 refers to the concentration at which inhibition is half-maximal.

T1 sequence (Q8TDU9 whole entry L329S): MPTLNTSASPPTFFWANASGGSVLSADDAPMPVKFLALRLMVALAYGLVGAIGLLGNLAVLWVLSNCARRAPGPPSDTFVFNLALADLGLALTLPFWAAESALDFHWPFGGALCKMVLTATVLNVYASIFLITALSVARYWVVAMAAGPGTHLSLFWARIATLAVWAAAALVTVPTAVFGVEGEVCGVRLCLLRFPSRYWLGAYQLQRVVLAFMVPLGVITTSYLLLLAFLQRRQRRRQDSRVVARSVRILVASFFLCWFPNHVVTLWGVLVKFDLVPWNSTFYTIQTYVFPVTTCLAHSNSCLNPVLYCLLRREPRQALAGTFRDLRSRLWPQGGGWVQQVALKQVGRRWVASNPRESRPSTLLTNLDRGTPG

B1: human relaxin3 (ligand)
chain 1: RAAPYGVRLCGREFIRAVIFTCGGSRW
chain 2: DVLAGLSSSCCKWGCSKSEISSLC
modifications: disulfide (positions not given here); also: A- and B-chains linked by disulfide bridges, places not given here
notes: also called unlabeled relaxin3; human recombinant relaxin3
Turning to B1, the EC50, Ca^2+ mobilization with Gα16 in test [1] was 50 to 100 nM; with human GPCR142 [6], ~50 nM. In the test with human GPCR142 [2], this molecule gave a Ki of 1.2 nM. For the same molecule, the “EC50, GTPγS binding assay” value was 1.1 nM with monkey GPCR142 [3]; 0.45 nM in the test with bovine GPCR142 [4]; 3.5 nM with mouse GPCR142 [5]; 0.93 nM and 0.98 nM in the test with human GPCR142 [6]; 0.96 nM in the test with porcine GPCR142 [7]. The “EC50, inhibition of forskolin-stimulated β-gal activity (cAMP reporter)” value with human GPCR142 [6] is 0.85 nM. The “Kd and Ki values” with human GPCR142 [8] lay in the range of 1 to 2 nM. The 50% inhibitory concentration (IC50) with monkey GPCR142 [9] was found to be 1.34 nM; in the test with bovine GPCR142 [10], 0.87 nM; with mouse GPCR142 [11], 5.45 nM; with human GPCR142 [12] it was 1.45 nM; in the test with porcine GPCR142 [13], 1.59 nM.

B2: human recombinant INSL5 (ligand)
chain 1: KESVRLCGLEYIRTVIYICASSRW
chain 2: QDLQTLCCTDGCSMTDLSALC
modifications: ends and bridges not checked; cysteine pairing not given here
notes: Recombinant peptide from COS-7 cells co-transfected with furin; also called unlabeled INSL5; human INSL5
B2: the binding result in the test with human GPCR135 was “no binding”.

The record behind these values is patent US20050059089A1 (priority 2003, published 2005).
